# Measurements as given in publication PMC6555819, “Comprehensive study of nuclear receptor DNA binding provides a revised framework for understanding receptor specificity”.
# Positions count from the first letter of the chain named.
# B1: NRC3_wobSeed121_DR5_C30T_o1 (dsDNA)
# DNA 1: GCCAAACTAGGTCACCGGAAGGTCAAAGTTCGCATGGCGATTGACAGCGTAGAATGAAGG
# DNA 2: CCTTCATTCTACGCTGTCAATCGCCATGCGAACTTTGACCTTCCGGTGACCTAGTTTGGC
# B2: NRC3_wobSeed43_DR1_A20C_o1 (dsDNA)
# DNA 1: GCCCAGACAGGTGAAAGGTCACTCAGTCTGGTACGCGCGATTGACAGCGTAGAATGAAGG
# DNA 2: CCTTCATTCTACGCTGTCAATCGCGCGTACCAGACTGAGTGACCTTTCACCTGTCTGGGC
# B3: NRC3_wobSeed38_DR1_T16G_o1 (dsDNA)
# DNA 1: GCCCTGCTAGGTCAAGGGTCAGCTAAAGCAGCTCGCGCGATTGACAGCGTAGAATGAAGG
# DNA 2: CCTTCATTCTACGCTGTCAATCGCGCGAGCTGCTTTAGCTGACCCTTGACCTAGCAGGGC
# B4: NRC3_wobSeed138_DR5_C23T_o1 (dsDNA)
# DNA 1: GCGATACAGGGTCAGCTAGAGGTCAGAGTATGGAAAGCGATTGACAGCGTAGAATGAAGG
# DNA 2: CCTTCATTCTACGCTGTCAATCGCTTTCCATACTCTGACCTCTAGCTGACCCTGTATCGC
# B5: NRC3_wobSeed42_DR1_C19G_o1 (dsDNA)
# DNA 1: GCTATACAGGGTCAAAGGGCAGAGTACGAATGTCGAGCGATTGACAGCGTAGAATGAAGG
# DNA 2: CCTTCATTCTACGCTGTCAATCGCTCGACATTCGTACTCTGCCCTTTGACCCTGTATAGC
# B6: NRC3_random_hg19_13_o1 (dsDNA)
# DNA 1: GCCACATCTGTAATCCCAGCACTTTGGGAGGCCAAGGCGATTGACAGCGTAGAATGAAGG
# DNA 2: CCTTCATTCTACGCTGTCAATCGCCTTGGCCTCCCAAAGTGCTGGGATTACAGATGTGGC
# B7: NRC3_wobSeed28_DR1_C7G_o1 (dsDNA)
# DNA 1: GCCCTAGTGGGCCAAAGGTCATTGATTCCAATGCTCGCGATTGACAGCGTAGAATGAAGG
# DNA 2: CCTTCATTCTACGCTGTCAATCGCGAGCATTGGAATCAATGACCTTTGGCCCACTAGGGC
# B8: NRC3_wobSeed27_DR1_A12G_o1 (dsDNA)
# DNA 1: GCACTCGGAGGGCAAAGGTCAGAGCTACGCCAGTGAGCGATTGACAGCGTAGAATGAAGG
# DNA 2: CCTTCATTCTACGCTGTCAATCGCTCACTGGCGTAGCTCTGACCTTTGCCCTCCGAGTGC
# B9: NRC3_wobSeed30_DR1_C12T_o1 (dsDNA)
# DNA 1: GCACTAGCAGGTCAAGGGTCACTCAAGATTAGTCCGGCGATTGACAGCGTAGAATGAAGG
# DNA 2: CCTTCATTCTACGCTGTCAATCGCCGGACTAATCTTGAGTGACCCTTGACCTGCTAGTGC
# B10: NRC3_wobSeed29_DR1_C8G_o1 (dsDNA)
# DNA 1: GCGCTTAGGGGTCAAAGGTTATAGCATGAATAGAATGCGATTGACAGCGTAGAATGAAGG
# DNA 2: CCTTCATTCTACGCTGTCAATCGCATTCTATTCATGCTATAACCTTTGACCCCTAAGCGC
# B11: NRC3_wobSeed73_DR3_T8A_o1 (dsDNA)
# DNA 1: GCCAAACAAGGTCACAGAGGTCAAAGTCCGTGCGTAGCGATTGACAGCGTAGAATGAAGG
# DNA 2: CCTTCATTCTACGCTGTCAATCGCTACGCACGGACTTTGACCTCTGTGACCTTGTTTGGC
# B12: NRC3_wobSeed97_DR4_T8A_o1 (dsDNA)
# DNA 1: GCCAAACAAGGTCACGAAAGGTCAAAGTCGAATGACGCGATTGACAGCGTAGAATGAAGG
# DNA 2: CCTTCATTCTACGCTGTCAATCGCGTCATTCGACTTTGACCTTTCGTGACCTTGTTTGGC
# B13: NRC3_wobSeed97_DR4_T8G_o1 (dsDNA)
# DNA 1: B12 DNA 1 with A8G
# DNA 2: B12 DNA 2 with T53C
# B14: NRC3_wobSeed123_DR5_A12T_o1 (dsDNA)
# DNA 1: GCCCTCGGAGGTCAACAGGAGGTCAGAGCTGCCAGAGCGATTGACAGCGTAGAATGAAGG
# DNA 2: CCTTCATTCTACGCTGTCAATCGCTCTGGCAGCTCTGACCTCCTGTTGACCTCCGAGGGC
# B15: NRC3_wobSeed114_DR4_A8G_o1 (dsDNA)
# DNA 1: GCAATACGGGGTCATCGTAGGCCAGAGTACGCACAGGCGATTGACAGCGTAGAATGAAGG
# DNA 2: CCTTCATTCTACGCTGTCAATCGCCTGTGCGTACTCTGGCCTACGATGACCCCGTATTGC
# B16: NRC3_random_hg19_25_o1 (dsDNA)
# DNA 1: GCGAGCCACCACGCCTGGCCTCTCCGATCTCCAACTGCGATTGACAGCGTAGAATGAAGG
# DNA 2: CCTTCATTCTACGCTGTCAATCGCAGTTGGAGATCGGAGAGGCCAGGCGTGGTGGCTCGC
# B17: NRC3_wobSeed109_DR4_C7T_o1 (dsDNA)
# DNA 1: GCCGTCTAAGGTCATAGGAGGTCAGTGAAGACAGATGCGATTGACAGCGTAGAATGAAGG
# DNA 2: CCTTCATTCTACGCTGTCAATCGCATCTGTCTTCACTGACCTCCTATGACCTTAGACGGC
# Target: PPARg:RXRa (Homo sapiens, UniProt P37231;P19793 full;full)
# Assay: no ligand; PBM; 180 nM : 90 nM RXRa; PBS pH 7.4, 2% milk, 0.02% Triton X-100, 1 mM DTT, BSA, 0.4 mg/ml salmon testes DNA
# Conditions: tags: His kept;His cleaved; copies: 1;1; label: surface-attached array probe
row,Binder,binding signal
1,B1,10.6 PBM z-score against 500 random probes
2,B2,10.4 PBM z-score against 500 random probes
3,B3,10.5 PBM z-score against 500 random probes
4,B4,5.41 PBM z-score against 500 random probes
5,B5,9.96 PBM z-score against 500 random probes
6,B6,0.3 PBM z-score against 500 random probes
7,B7,13.1 PBM z-score against 500 random probes
8,B8,9.6 PBM z-score against 500 random probes
9,B9,11.2 PBM z-score against 500 random probes

# Target: RARb:RXRa (Homo sapiens, UniProt P10826;P19793 full;full)
# Assay: no ligand; PBM; 270 nM : 90 nM RXRa; PBS pH 7.4, 2% milk, 0.02% Triton X-100, 1 mM DTT, BSA, 0.4 mg/ml salmon testes DNA
# Conditions: tags: His kept;His cleaved; copies: 1;1; label: surface-attached array probe
# Method in brief: (§1)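 Binding buffer was PBS pH 7.4 with 2% milk, 0.02% Triton X-100, 1 mM DTT, 0.2 mg/mL BSA and 0.4 mg/ml salmon testes DNA. In it, ligand-free nuclear receptor dimers were incubated 1 h on custom Agilent 4×180K protein-binding microarrays carrying double-stranded probes. Antibodies against each partner (one per run) detected binding, and z-scores were calculated against random background probes after regression normalization of scanned fluorescence.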
# Chain of RARb:RXRa (P10826 whole entry, chain 1 of 2): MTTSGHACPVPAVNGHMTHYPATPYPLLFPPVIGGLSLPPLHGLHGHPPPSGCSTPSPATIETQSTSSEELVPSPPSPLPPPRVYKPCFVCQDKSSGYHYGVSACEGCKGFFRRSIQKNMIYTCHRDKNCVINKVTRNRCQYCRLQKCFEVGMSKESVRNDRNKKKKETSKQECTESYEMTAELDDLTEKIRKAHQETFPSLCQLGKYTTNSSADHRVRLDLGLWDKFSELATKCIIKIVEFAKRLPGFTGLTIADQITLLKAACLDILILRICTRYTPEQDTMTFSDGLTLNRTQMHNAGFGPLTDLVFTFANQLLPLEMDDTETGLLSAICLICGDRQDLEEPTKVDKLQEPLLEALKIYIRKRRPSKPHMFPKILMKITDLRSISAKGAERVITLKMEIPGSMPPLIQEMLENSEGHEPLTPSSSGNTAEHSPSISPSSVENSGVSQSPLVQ
# Chain of RARb:RXRa (P19793 whole entry, chain 2 of 2): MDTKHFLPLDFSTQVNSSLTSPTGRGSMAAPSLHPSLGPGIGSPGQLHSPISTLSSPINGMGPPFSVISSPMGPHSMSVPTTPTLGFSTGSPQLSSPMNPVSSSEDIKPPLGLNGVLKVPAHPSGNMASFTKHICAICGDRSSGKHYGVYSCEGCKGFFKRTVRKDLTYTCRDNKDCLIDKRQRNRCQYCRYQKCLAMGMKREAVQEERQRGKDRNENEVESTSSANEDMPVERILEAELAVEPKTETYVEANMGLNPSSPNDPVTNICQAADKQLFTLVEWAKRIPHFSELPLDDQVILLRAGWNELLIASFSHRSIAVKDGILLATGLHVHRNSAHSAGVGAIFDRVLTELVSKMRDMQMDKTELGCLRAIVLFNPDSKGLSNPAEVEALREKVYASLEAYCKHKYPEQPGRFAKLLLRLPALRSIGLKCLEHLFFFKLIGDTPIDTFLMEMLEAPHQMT
row,Binder,binding signal
1,B10,5.84 PBM z-score against 500 random probes
2,B11,6.08 PBM z-score against 500 random probes
3,B12,6.14 PBM z-score against 500 random probes
4,B13,6.03 PBM z-score against 500 random probes
5,B14,5.85 PBM z-score against 500 random probes

# Target: VDR:RXRa (Homo sapiens, UniProt P11473;P19793 full;full)
# Assay: as above
# Conditions: tags: His kept;His cleaved; copies: 1;1; label: surface-attached array probe
# Method in brief: as §1
row,Binder,binding signal
1,B15,7.09 PBM z-score against 500 random probes
2,B10,7.19 PBM z-score against 500 random probes
3,B11,8.7 PBM z-score against 500 random probes
4,B12,7.94 PBM z-score against 500 random probes
5,B13,7.51 PBM z-score against 500 random probes

# Target: LXRa:RXRa (Homo sapiens, UniProt Q13133;P19793 full;full)
# Assay: as above
# Conditions: tags: His kept;His cleaved; copies: 1;1; label: surface-attached array probe
# Method in brief: as §1
# Chain of LXRa:RXRa (Q13133 whole entry, chain 1 of 2): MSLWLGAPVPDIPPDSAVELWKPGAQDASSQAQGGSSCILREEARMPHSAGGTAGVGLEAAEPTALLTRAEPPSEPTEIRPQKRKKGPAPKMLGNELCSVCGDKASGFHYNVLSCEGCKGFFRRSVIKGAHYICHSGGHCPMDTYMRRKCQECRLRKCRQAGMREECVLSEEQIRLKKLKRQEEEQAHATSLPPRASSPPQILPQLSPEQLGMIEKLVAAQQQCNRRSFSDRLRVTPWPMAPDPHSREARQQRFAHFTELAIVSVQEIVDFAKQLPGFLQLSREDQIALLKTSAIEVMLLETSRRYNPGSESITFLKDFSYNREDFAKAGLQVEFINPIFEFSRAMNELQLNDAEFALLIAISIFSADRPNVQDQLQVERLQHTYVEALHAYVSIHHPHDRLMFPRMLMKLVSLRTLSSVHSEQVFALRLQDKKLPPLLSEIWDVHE
# Chain of LXRa:RXRa (P19793 whole entry, chain 2 of 2): as the sequence (P19793 whole entry, chain 2 of 2) above
row,Binder,binding signal
1,B16,-0.38 PBM z-score against 500 random probes
2,B15,7.63 PBM z-score against 500 random probes
3,B10,7.36 PBM z-score against 500 random probes
4,B11,7.79 PBM z-score against 500 random probes
5,B17,8.01 PBM z-score against 500 random probes
6,B12,8.85 PBM z-score against 500 random probes
7,B13,8.87 PBM z-score against 500 random probes
8,B14,6.72 PBM z-score against 500 random probes

# Target: LXRb:RXRa (Homo sapiens, UniProt P55055;P19793 full;full)
# Assay: as above
# Conditions: tags: His kept;His cleaved; copies: 1;1; label: surface-attached array probe
# Method in brief: as §1
row,Binder,binding signal
1,B16,-0.09 PBM z-score against 500 random probes
2,B15,6.75 PBM z-score against 500 random probes
3,B10,7.75 PBM z-score against 500 random probes
4,B11,7.37 PBM z-score against 500 random probes
5,B12,8.12 PBM z-score against 500 random probes
6,B13,7.93 PBM z-score against 500 random probes

# Target: RARg:RXRa (Homo sapiens, UniProt P13631;P19793 full;full)
# Assay: as above
# Conditions: tags: His kept;His cleaved; copies: 1;1; label: surface-attached array probe
# Method in brief: as §1
# Chain of RARg:RXRa (P13631 whole entry, chain 1 of 2): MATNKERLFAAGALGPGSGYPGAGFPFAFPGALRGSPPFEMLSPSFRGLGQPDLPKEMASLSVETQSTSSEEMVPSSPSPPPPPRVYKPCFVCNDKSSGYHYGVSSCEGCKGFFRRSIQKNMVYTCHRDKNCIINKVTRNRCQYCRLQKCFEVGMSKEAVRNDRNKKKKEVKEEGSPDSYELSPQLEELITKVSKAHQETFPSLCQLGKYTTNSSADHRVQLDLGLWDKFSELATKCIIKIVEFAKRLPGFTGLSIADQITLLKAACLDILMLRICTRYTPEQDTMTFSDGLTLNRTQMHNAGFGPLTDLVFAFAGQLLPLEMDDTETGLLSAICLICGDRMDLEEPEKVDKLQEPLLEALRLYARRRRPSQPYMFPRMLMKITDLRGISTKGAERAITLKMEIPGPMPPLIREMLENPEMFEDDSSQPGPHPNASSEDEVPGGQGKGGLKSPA
# Chain of RARg:RXRa (P19793 whole entry, chain 2 of 2): as the sequence (P19793 whole entry, chain 2 of 2) above
row,Binder,binding signal
1,B15,7.44 PBM z-score against 500 random probes
2,B4,9.04 PBM z-score against 500 random probes
3,B10,8.66 PBM z-score against 500 random probes
4,B11,8.47 PBM z-score against 500 random probes
5,B12,8.87 PBM z-score against 500 random probes
6,B13,8.98 PBM z-score against 500 random probes
7,B14,8.86 PBM z-score against 500 random probes

# Target: RARa:RXRa (Homo sapiens, UniProt P10276;P19793 full;full)
# Assay: as above
# Conditions: tags: His kept;His cleaved; copies: 1;1; label: surface-attached array probe
# Method in brief: as §1
row,Binder,binding signal
1,B16,-0.44 PBM z-score against 500 random probes
2,B15,7.2 PBM z-score against 500 random probes
3,B1,8.54 PBM z-score against 500 random probes
4,B2,7.65 PBM z-score against 500 random probes
5,B3,7.26 PBM z-score against 500 random probes
6,B4,7.75 PBM z-score against 500 random probes
7,B10,9.11 PBM z-score against 500 random probes
8,B5,7.26 PBM z-score against 500 random probes
9,B11,8.63 PBM z-score against 500 random probes
10,B6,0.01 PBM z-score against 500 random probes
11,B7,7.08 PBM z-score against 500 random probes
12,B17,7.11 PBM z-score against 500 random probes
13,B8,7.48 PBM z-score against 500 random probes
14,B12,8.72 PBM z-score against 500 random probes
15,B13,8.33 PBM z-score against 500 random probes
16,B9,8.23 PBM z-score against 500 random probes
17,B14,7.44 PBM z-score against 500 random probes

# Target: PXR:RXRa (Homo sapiens, UniProt O75469;P19793 full;full)
# Assay: as above
# Conditions: tags: His kept;His cleaved; copies: 1;1; label: surface-attached array probe
# Method in brief: as §1
row,Binder,binding signal
1,B16,-0.45 PBM z-score against 500 random probes
2,B15,6.64 PBM z-score against 500 random probes
3,B10,7.35 PBM z-score against 500 random probes
4,B11,7.48 PBM z-score against 500 random probes
5,B17,7.34 PBM z-score against 500 random probes
6,B12,7.87 PBM z-score against 500 random probes
7,B13,7.9 PBM z-score against 500 random probes
8,B14,6.48 PBM z-score against 500 random probes

# Target: PPARa:RXRa (Homo sapiens, UniProt Q07869;P19793 full;full)
# Assay: as above
# Conditions: tags: GST kept;His cleaved; copies: 1;1; label: surface-attached array probe
# Method in brief: as §1
# Chain of PPARa:RXRa (Q07869 whole entry, chain 1 of 2): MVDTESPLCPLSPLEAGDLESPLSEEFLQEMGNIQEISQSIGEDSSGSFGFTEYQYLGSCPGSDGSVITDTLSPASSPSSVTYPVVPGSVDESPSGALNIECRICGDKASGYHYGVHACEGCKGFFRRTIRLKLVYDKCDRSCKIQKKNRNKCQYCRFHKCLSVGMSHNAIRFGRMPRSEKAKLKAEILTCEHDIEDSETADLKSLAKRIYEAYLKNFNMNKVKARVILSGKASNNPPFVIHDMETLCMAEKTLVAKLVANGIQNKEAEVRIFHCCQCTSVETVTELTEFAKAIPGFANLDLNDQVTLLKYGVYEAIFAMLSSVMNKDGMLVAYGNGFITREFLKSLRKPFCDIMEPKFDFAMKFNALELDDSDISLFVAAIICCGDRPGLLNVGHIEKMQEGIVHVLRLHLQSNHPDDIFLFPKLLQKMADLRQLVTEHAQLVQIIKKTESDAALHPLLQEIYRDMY
# Chain of PPARa:RXRa (P19793 whole entry, chain 2 of 2): as the sequence (P19793 whole entry, chain 2 of 2) above
row,Binder,binding signal
1,B15,6.87 PBM z-score against 500 random probes
2,B10,7.64 PBM z-score against 500 random probes
3,B11,6.92 PBM z-score against 500 random probes
4,B12,7 PBM z-score against 500 random probes
5,B13,6.96 PBM z-score against 500 random probes
6,B14,6.94 PBM z-score against 500 random probes

# Target: FXR:RXRa (Homo sapiens, UniProt Q96RI1;P19793 full;full)
# Assay: as above
# Conditions: tags: His kept;His cleaved; copies: 1;1; label: surface-attached array probe
# Method in brief: as §1
# Chain of FXR:RXRa (Q96RI1 whole entry, chain 1 of 2): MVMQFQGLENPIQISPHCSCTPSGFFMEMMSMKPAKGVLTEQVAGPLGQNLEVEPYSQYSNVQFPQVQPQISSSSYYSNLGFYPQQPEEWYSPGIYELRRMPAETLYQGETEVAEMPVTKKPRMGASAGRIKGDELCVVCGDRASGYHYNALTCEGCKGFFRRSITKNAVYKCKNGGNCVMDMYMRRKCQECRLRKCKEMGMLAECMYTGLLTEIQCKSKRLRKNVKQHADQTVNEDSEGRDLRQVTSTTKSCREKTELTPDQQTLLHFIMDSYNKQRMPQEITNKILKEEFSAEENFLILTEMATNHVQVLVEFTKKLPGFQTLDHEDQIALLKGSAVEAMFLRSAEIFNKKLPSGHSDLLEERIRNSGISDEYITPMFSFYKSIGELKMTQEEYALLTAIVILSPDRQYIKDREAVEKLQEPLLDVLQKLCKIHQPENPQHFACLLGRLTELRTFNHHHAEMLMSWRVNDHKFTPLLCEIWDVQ
# Chain of FXR:RXRa (P19793 whole entry, chain 2 of 2): as the sequence (P19793 whole entry, chain 2 of 2) above
row,Binder,binding signal
1,B15,8.6 PBM z-score against 500 random probes
2,B10,9.03 PBM z-score against 500 random probes
3,B11,8.84 PBM z-score against 500 random probes
4,B17,8.24 PBM z-score against 500 random probes
5,B12,8.87 PBM z-score against 500 random probes
6,B13,9.24 PBM z-score against 500 random probes
7,B14,7.97 PBM z-score against 500 random probes

# Target: RXRa (Homo sapiens, UniProt P19793)
# Assay: no ligand; PBM; 180 nM; PBS pH 7.4, 2% milk, 0.02% Triton X-100, 1 mM DTT, BSA, 0.4 mg/ml salmon testes DNA
# Conditions: tags: His cleaved; chain copies: 2; label: surface-attached array probe
row,Binder,binding signal
1,B15,9.29 PBM z-score against 500 random probes
2,B1,8.07 PBM z-score against 500 random probes
3,B2,8.23 PBM z-score against 500 random probes
4,B10,10.6 PBM z-score against 500 random probes
5,B5,8.22 PBM z-score against 500 random probes
6,B11,10.1 PBM z-score against 500 random probes
7,B6,0.22 PBM z-score against 500 random probes
8,B8,8.52 PBM z-score against 500 random probes
9,B12,9.58 PBM z-score against 500 random probes
10,B13,9.84 PBM z-score against 500 random probes
11,B9,8.53 PBM z-score against 500 random probes
